Laboratory results taken from PMC5662698, “Conformation transitions of the polypeptide-binding pocket support an active substrate release from Hsp70s” (Nature Communications, 2017).

Key:
[1] = biological target: T1, TMR-labeled BiP protein (BiP-C41A/C420A/V429C/T462C labelled with tetramethylrhodamine) (human, UniProt P11021 19-654, C41A | C420A | V429C | T462C, tetramethylrhodamine (TMR, from 5-IATR) on both introduced cysteines (V429C, T462C)); experiment: other fluorescence titration; quenching of two TMR labels on BiP (called FRET by the paper); 300 nM TMR-labeled BiP, 2 mM ATP, buffer B (30 mM Tris-HCl pH 7.0, 100 mM KCl, 3 mM MgCl2, 3 mM CaCl2, 10% glycerol), room temperature, serial dilutions of ERdj3, one-site binding fit; conditions: both partners purified
T1 construct: human BiP with C41A, C420A, V429C, T462C; ATP (2 mM) present in the ERdj3 experiments; also called TMR-labeled BiP FRET protein; source: E. coli BL21(DE3) Gold, purified, labelled with 5-IATR, HiTrap Q, monomer peak used; not shown: His6, N-terminal, cleaved; Smt3, N-terminal, cleaved

[2] = biological target: T2, TMR-labeled DnaK (DnaK FRET construct C15A/M404C/T437C labelled with tetramethylrhodamine) (E. coli, UniProt P0A6Y8 1-638, C15A | M404C | T437C, tetramethylrhodamine (TMR, from 5-IATR) on both introduced cysteines (M404C, T437C)); experiment: other fluorescence titration; quenching of two TMR labels on DnaK (called FRET by the paper); 30 nM TMR-labeled DnaK, 2 mM ATP, buffer C (30 mM Tris-HCl pH 7.5, 25 mM KCl, 3 mM MgCl2, 10% glycerol), room temperature, DnaJ added at indicated concentrations; conditions: both partners purified
T2 construct: DnaK, an E. coli Hsp70, with C15A, M404C, T437C; ATP (2 mM) present in the DnaJ experiments; source: E. coli dnak deletion strain BB205 (plasmid pBB46), purified, labelled with 5-IATR, HiTrap Q, monomer peak used

T1 sequence (P11021 19-654 C41A/C420A/V429C/T462C): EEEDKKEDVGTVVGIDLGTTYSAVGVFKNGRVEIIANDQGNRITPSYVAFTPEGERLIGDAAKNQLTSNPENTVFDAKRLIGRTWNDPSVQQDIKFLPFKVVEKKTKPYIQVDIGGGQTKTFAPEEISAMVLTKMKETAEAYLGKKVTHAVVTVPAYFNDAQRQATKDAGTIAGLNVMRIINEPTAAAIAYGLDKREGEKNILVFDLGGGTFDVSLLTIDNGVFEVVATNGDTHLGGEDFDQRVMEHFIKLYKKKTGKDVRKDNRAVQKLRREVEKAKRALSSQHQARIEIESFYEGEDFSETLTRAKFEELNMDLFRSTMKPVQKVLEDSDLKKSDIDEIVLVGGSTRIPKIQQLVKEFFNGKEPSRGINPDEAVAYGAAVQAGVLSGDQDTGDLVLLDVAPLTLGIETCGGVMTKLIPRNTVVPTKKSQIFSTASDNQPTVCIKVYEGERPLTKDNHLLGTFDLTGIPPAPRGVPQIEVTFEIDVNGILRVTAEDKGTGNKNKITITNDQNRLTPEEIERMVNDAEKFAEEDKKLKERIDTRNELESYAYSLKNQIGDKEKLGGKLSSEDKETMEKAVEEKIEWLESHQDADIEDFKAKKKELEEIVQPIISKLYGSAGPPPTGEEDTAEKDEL

Row | Kd [1] [nM] | fold change of the dissociation constant against ERdj3-BiP [2] [times lower] | Binder
1 | 1670 ± 110 | – | ERdj3 (natural protein, UniProt Q9UBS4 23-358, looked up, ERdj3, an Hsp40 co-chaperone of BiP in the ER; plasmid a gift of Dr. Linda Hendershot; also called Hsp40 ERdj3; source: M15 E. coli, purified (HisTrap, 2 M urea in the lysis buffer, dialysis)) GRDFYKILGVPRSASIKDIKKAYRKLALQLHPDRNPDDPQAQEKFQDLGAAYEVLSDSEKRKQYDTYGEEGLKDGHQSSHGDIFSHFFGDFGFMFGGTPRQQDRNIPRGSDIIVDLEVTLEEVYAGNFVEVVRNKPVARQAPGKRKCNCRQEMRTTQLGPGRFQMTQEVVCDECPNVKLVNEERTLEVEIEPGVRDGMEYPFIGEGEPHVDGEPGDLRFRIKVVKHPIFERRGDDLYTNVTISLVESLVGFEMDITHLDGHKVHISRDKITRPGAKLWKKGEGLPNFDNNNIKGSLIITFDVDFPKEQLTEEAREGIKQLLKQGSVQKVYNGLQGY
2 | – | ~10 | DnaJ (natural protein, UniProt P08622 1-376, looked up, DnaJ, the Hsp40 partner of DnaK; also called Hsp40 co-chaperone DnaJ; source: E. coli BL21(DE3) Gold, purified (HisTrap, Ulp1, HisTrap, Superdex 200); not shown: Smt3, N-terminal, cleaved; His6 (from the vector pSMT3), N-terminal, cleaved) MAKQDYYEILGVSKTAEEREIRKAYKRLAMKYHPDRNQGDKEAEAKFKEIKEAYEVLTDSQKRAAYDQYGHAAFEQGGMGGGGFGGGADFSDIFGDVFGDIFGGGRGRQRAARGADLRYNMELTLEEAVRGVTKEIRIPTLEECDVCHGSGAKPGTQPQTCPTCHGSGQVQMRQGFFAVQQTCPHCQGRGTLIKDPCNKCHGHGRVERSKTLSVKIPAGVDTGDRIRLAGEGEAGEHGAPAGDLYVQVQVKQHPIFEREGNNLYCEVPINFAMAALGGEIEVPTLDGRVKLKVPGETQTGKLFRMRGKGVKSVRGGAQGDLLCRVVVETPVGLNERQKQLLQELQESFGGPTGEHNSPRSKSFFDGVKKFFDDLTR
